Patent US20230143604A1, “QW DOSING OF GIP RECEPTOR AGONIST PEPTIDE COMPOUNDS AND USES THEREOF” (TAKEDA PHARMACEUTICAL COMPANY LIMITED, priority 2020, published 2023)
Starred links: 1 amine or outer side, 2 acyl side, 3 side chain; linkers in the order of their positions; H or OH if unused. Positions of bridges follow the written chain, without caps; N, C: chain ends. Non-standard residues stand in square brackets, D forms with d. Chains are numbered I, II in the order given. No end group written: not given here. *: point of attachment. 2OEGgEgE‑C18 diacid = O=C(O)CCCCCCCCCCCCCCCCC(=O)N[C@@H](CCC(=O)N[C@@H](CCC(=O)NCCOCCOCC(=O)NCCOCCOCC(=O)*)C(=O)O)C(=O)O; C18 diacid = O=C(O)CCCCCCCCCCCCCCCCC(=O)*; γGlu = O=C(O)[C@H](CCC(=O)[*:2])N[*:1]; NMeY = CN[C@@H](Cc1ccc(O)cc1)C(=O)O; Aib = CC(C)(N)C(=O)O

T1: full-length human GIPR with an N-terminal FLAG tag (human, UniProt P48546 22-466)
T1 sequence (looked up): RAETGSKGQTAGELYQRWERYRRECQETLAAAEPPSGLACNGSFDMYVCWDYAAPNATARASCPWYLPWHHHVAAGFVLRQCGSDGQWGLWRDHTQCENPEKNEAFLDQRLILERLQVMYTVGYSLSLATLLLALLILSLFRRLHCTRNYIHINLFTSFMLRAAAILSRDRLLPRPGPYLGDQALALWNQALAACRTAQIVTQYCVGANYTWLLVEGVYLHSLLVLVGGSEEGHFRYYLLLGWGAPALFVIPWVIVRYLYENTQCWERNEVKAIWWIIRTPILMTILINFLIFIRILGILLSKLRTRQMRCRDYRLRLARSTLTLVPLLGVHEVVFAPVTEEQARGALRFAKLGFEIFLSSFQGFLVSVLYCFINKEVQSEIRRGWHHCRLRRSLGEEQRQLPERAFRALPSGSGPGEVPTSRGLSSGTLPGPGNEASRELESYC

B1: Compound No. 55 (peptide)
peptide: [NMeY][Aib]EGTFISDYSIALDR[Aib]AQ[Aib]NFVNWLLAK(2OEGgEgE‑C18 diacid)RG-OH
modifications: N-terminus assumed
SMILES: CC[C@H](C)[C@H](NC(=O)[C@H](CO)NC(=O)[C@H](Cc1ccc(O)cc1)NC(=O)[C@H](CC(=O)O)NC(=O)[C@H](CO)NC(=O)[C@@H](NC(=O)[C@H](Cc1ccccc1)NC(=O)[C@@H](NC(=O)CNC(=O)[C@H](CCC(=O)O)NC(=O)C(C)(C)NC(=O)[C@H](Cc1ccc(O)cc1)NC)[C@@H](C)O)[C@@H](C)CC)C(=O)N[C@@H](C)C(=O)N[C@@H](CC(C)C)C(=O)N[C@@H](CC(=O)O)C(=O)N[C@@H](CCCNC(=N)N)C(=O)NC(C)(C)C(=O)N[C@@H](C)C(=O)N[C@@H](CCC(N)=O)C(=O)NC(C)(C)C(=O)N[C@@H](CC(N)=O)C(=O)N[C@@H](Cc1ccccc1)C(=O)N[C@H](C(=O)N[C@@H](CC(N)=O)C(=O)N[C@@H](Cc1c[nH]c2ccccc12)C(=O)N[C@@H](CC(C)C)C(=O)N[C@@H](CC(C)C)C(=O)N[C@@H](C)C(=O)N[C@@H](CCCCNC(=O)COCCOCCNC(=O)COCCOCCNC(=O)CC[C@H](NC(=O)CC[C@H](NC(=O)CCCCCCCCCCCCCCCCC(=O)O)C(=O)O)C(=O)O)C(=O)N[C@@H](CCCNC(=N)N)C(=O)NCC(=O)O)C(C)C
B2: Compound No. 56 (peptide)
peptide: [NMeY][Aib]EGTFISDYSIALDR[Aib]AQ[Aib]DFVNWLLAK(2OEGgEgE‑C18 diacid)RG-OH
modifications: N-terminus assumed
SMILES: CC[C@H](C)[C@H](NC(=O)[C@H](CO)NC(=O)[C@H](Cc1ccc(O)cc1)NC(=O)[C@H](CC(=O)O)NC(=O)[C@H](CO)NC(=O)[C@@H](NC(=O)[C@H](Cc1ccccc1)NC(=O)[C@@H](NC(=O)CNC(=O)[C@H](CCC(=O)O)NC(=O)C(C)(C)NC(=O)[C@H](Cc1ccc(O)cc1)NC)[C@@H](C)O)[C@@H](C)CC)C(=O)N[C@@H](C)C(=O)N[C@@H](CC(C)C)C(=O)N[C@@H](CC(=O)O)C(=O)N[C@@H](CCCNC(=N)N)C(=O)NC(C)(C)C(=O)N[C@@H](C)C(=O)N[C@@H](CCC(N)=O)C(=O)NC(C)(C)C(=O)N[C@@H](CC(=O)O)C(=O)N[C@@H](Cc1ccccc1)C(=O)N[C@H](C(=O)N[C@@H](CC(N)=O)C(=O)N[C@@H](Cc1c[nH]c2ccccc12)C(=O)N[C@@H](CC(C)C)C(=O)N[C@@H](CC(C)C)C(=O)N[C@@H](C)C(=O)N[C@@H](CCCCNC(=O)COCCOCCNC(=O)COCCOCCNC(=O)CC[C@H](NC(=O)CC[C@H](NC(=O)CCCCCCCCCCCCCCCCC(=O)O)C(=O)O)C(=O)O)C(=O)N[C@@H](CCCNC(=N)N)C(=O)NCC(=O)O)C(C)C
B3: Compound No. 57 (peptide)
peptide: [NMeY][Aib]EGTFISDYSIALDR[Aib]AQ[Aib]DFVNWLLAK(2OEGgEgE‑C18 diacid)RGGGGS-NH2
modifications: N-terminus assumed
SMILES: CC[C@H](C)[C@H](NC(=O)[C@H](CO)NC(=O)[C@H](Cc1ccc(O)cc1)NC(=O)[C@H](CC(=O)O)NC(=O)[C@H](CO)NC(=O)[C@@H](NC(=O)[C@H](Cc1ccccc1)NC(=O)[C@@H](NC(=O)CNC(=O)[C@H](CCC(=O)O)NC(=O)C(C)(C)NC(=O)[C@H](Cc1ccc(O)cc1)NC)[C@@H](C)O)[C@@H](C)CC)C(=O)N[C@@H](C)C(=O)N[C@@H](CC(C)C)C(=O)N[C@@H](CC(=O)O)C(=O)N[C@@H](CCCNC(=N)N)C(=O)NC(C)(C)C(=O)N[C@@H](C)C(=O)N[C@@H](CCC(N)=O)C(=O)NC(C)(C)C(=O)N[C@@H](CC(=O)O)C(=O)N[C@@H](Cc1ccccc1)C(=O)N[C@H](C(=O)N[C@@H](CC(N)=O)C(=O)N[C@@H](Cc1c[nH]c2ccccc12)C(=O)N[C@@H](CC(C)C)C(=O)N[C@@H](CC(C)C)C(=O)N[C@@H](C)C(=O)N[C@@H](CCCCNC(=O)COCCOCCNC(=O)COCCOCCNC(=O)CC[C@H](NC(=O)CC[C@H](NC(=O)CCCCCCCCCCCCCCCCC(=O)O)C(=O)O)C(=O)O)C(=O)N[C@@H](CCCNC(=N)N)C(=O)NCC(=O)NCC(=O)NCC(=O)NCC(=O)N[C@@H](CO)C(N)=O)C(C)C
B4: Compound No. 61 (peptide)
peptide: [NMeY][Aib]EGTFISDYSIALDR[Aib]AQ[Aib]DFVNWLLAQK(2OEGgEgE‑C18 diacid)G-OH
modifications: N-terminus assumed
SMILES: CC[C@H](C)[C@H](NC(=O)[C@H](CO)NC(=O)[C@H](Cc1ccc(O)cc1)NC(=O)[C@H](CC(=O)O)NC(=O)[C@H](CO)NC(=O)[C@@H](NC(=O)[C@H](Cc1ccccc1)NC(=O)[C@@H](NC(=O)CNC(=O)[C@H](CCC(=O)O)NC(=O)C(C)(C)NC(=O)[C@H](Cc1ccc(O)cc1)NC)[C@@H](C)O)[C@@H](C)CC)C(=O)N[C@@H](C)C(=O)N[C@@H](CC(C)C)C(=O)N[C@@H](CC(=O)O)C(=O)N[C@@H](CCCNC(=N)N)C(=O)NC(C)(C)C(=O)N[C@@H](C)C(=O)N[C@@H](CCC(N)=O)C(=O)NC(C)(C)C(=O)N[C@@H](CC(=O)O)C(=O)N[C@@H](Cc1ccccc1)C(=O)N[C@H](C(=O)N[C@@H](CC(N)=O)C(=O)N[C@@H](Cc1c[nH]c2ccccc12)C(=O)N[C@@H](CC(C)C)C(=O)N[C@@H](CC(C)C)C(=O)N[C@@H](C)C(=O)N[C@@H](CCC(N)=O)C(=O)N[C@@H](CCCCNC(=O)COCCOCCNC(=O)COCCOCCNC(=O)CC[C@H](NC(=O)CC[C@H](NC(=O)CCCCCCCCCCCCCCCCC(=O)O)C(=O)O)C(=O)O)C(=O)NCC(=O)O)C(C)C

Key:
[1] = Solubility in phosphate buffer pH 7.4
Method in brief: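 Solubility at pH 7.4 determined by stepwise addition of 200 mM phosphate buffer in 100 μL increments to 3 mg peptide, mixing briefly each time, until no insoluble material remained, then measured by liquid chromatography.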

[2] = molecular target: full-length human GLP-1R with an N-terminal FLAG tag (human, UniProt P43220 24-463); assay: cell-based or functional assay
[3] = molecular target: T1, full-length human GIPR with an …; assay: cell-based or functional assay
[4] = pH 7.4, aqueous buffer, pH 7.4 Phosphate Buffer - Solubility, 200 mM Phosphate buffer pH 7.4
[5] = pH 7.4, solubility in phosphate buffer at pH 7.4, 200 mM phosphate buffer pH 7.4

Row | Molecule | solubility [1, 4] [mg/mL] | solubility [1, 5] [mg/mL] | Human GLP1R cAMP EC50, HEK293T [2] [nM] | Human GIPR cAMP EC50, HEK293T [3] [nM]
1 | I: H-[NMeY][Aib]EGTFISDYSIALDR[Aib]AQ[Aib]KFVNWLLAQSPSSGAPPPS-OH / II: {C18 diacid-γGlu}-PAPAPGG (amide I:21-II:C) [Compound 104] | ≥ 60 | ≥ 15 | – | –
2 | I: H-[NMeY][Aib]EGTFISDYSIALDR[Aib]KQ[Aib]DFVNWLLAQSPSSGAPPPS-OH / II: {C18 diacid}-PAPAPGG (amide I:18-II:C) [Compound 102] | ≥ 60 | ≥ 15 | – | –
3 | [NMeY][Aib]EGTFISDYSIALDRK(2OEGgE‑C18 diacid)HQQNFVNWLLAQRPSSGAPPPS-NH2 [Compound No. 4] | – | – | 38.9 | 0.001
4 | YXEGTFISDYSIXXDRXAQXDFVNWLLAQSG (N-methyl Tyr 1; Aib at 2,13,17,20; Lys(G5-C18 diacid) at 14; C-terminal OH) [Compound No. 53] | – | – | 47.9 | 0.0005
5 | YXEGTFISDYSIXXDRXAQXDFVNWLLAQRPSSGAPPPS (N-methyl Tyr 1; Aib at 2,13,17,20; Lys(G5-C18 diacid) at 14; C-terminal OH) [Compound No. 54] | – | – | 120 | 0.0006
6 | B1 | – | – | 741 | 0.0009
7 | B2 | – | – | > 1000 | 0.0006
8 | B3 | – | – | > 1000 | 0.0006
9 | [NMeY][Aib]EGTFISDYSIALDR[Aib]AQ[Aib]DFVNWLLAK(2OEGgEgE‑C18 diacid)RPSSGAPPPS-NH2 [Compound No. 58] | – | – | > 1000 | 0.0004
10 | [NMeY][Aib]EGTFISDYSIALDRIHQQNFVNWLLAQK-NH2 (not fully specified (residue 30)) [Compound No. 5] | – | – | 123 | 0.0007
11 | [NMeY][Aib]EGTFISDYSIALDR[Aib]AQ[Aib]NFVNWLLAK(2OEGgEgE‑C18 diacid)SPSSGAPPPS-NH2 [Compound No. 59] | – | – | > 1000 | 0.0005
12 | YXEGTFISDYSIAXDSXAQXDFVNWLLAQSG (N-methyl Tyr 1; Aib at 2,17,20; Lys(G5-C18 diacid) at 14; C-terminal OH) [Compound No. 60] | – | – | 100 | 0.0003
13 | B4 | – | – | > 1000 | 0.0007
14 | YXEGTFISDYSIAXDRXAQXNFVNWLLAQSPSSGAPPPS (N-methyl Tyr 1; Aib at 2,17,20; Lys(G5-C20 diacid) at 14; C-terminal OH) [Compound No. 112] | – | – | – | 0.0003
15 | YXEGTFISDYSIAXDRXAQXNFVNWLLAQSPSSGAPPPS (N-methyl Tyr 1; Aib at 2,17,20; Lys(G5-C20 diacid) at 14; C-terminal OH) [Compound No. 40] | – | – | – | 0.0007
